Assay type in all cases: in vivo, mouse
Data set [1] relates to obese C57BL/6 mice. The experiment in a line: Open field test, HFD mice treated with Reparixin. The conditions noted are these: HFD C57BL/6 mice; Reparixin 30 mg/kg s.c. twice per day for 2 weeks vs non-treated. How it is done: (§1) Reparixin L-lysine salt (MedChemExpress, #HY-15252) or L-Lysine hydrochloride (MedChemExpress, #HY-N0470) was dissolved in H2O was administered to obese C57BL/6 mice (fed for 2 months with high-fat diet) via subcutaneous injection (30 mg/kg) twice per day for 2 weeks. 2 hours after the last injection mice were tested in open field and elevated plus maze and afterwards dissected. Locomotor activity and anxiety-like behavior of mice were assessed in sound-insulated, rectangular activity chambers (Med Associates Inc., St Albans, Vt., USA: W×L×D=27 cm×27 cm×20 cm with continually running fans, infrared lasers, and sensors). Beam breaks were assessed in 2-minute bins over 30 minutes, converted automatically to current mouse location and distance travelled (cm), and recorded on a computer with Med-PC software Version 4.0. Before the test, mice were acclimatized to the room for 1-1.5 hours before being introduced into the chambers. Mice were habituated for 5 minutes in the Open Field chamber (without recording) then placed for another 5 minutes in the home cage. Afterwards, mice were introduced back to the chambers and all mouse movements were recorded for 30 minutes. Anxiety was quantified by the distance mice travelled in the central 25% of the chamber (zone 1) as a function of the total distance mice travelled and by frequencies of entries into zone 1.

Data set [2] deals with obese C57BL/6 mice. The experiment in a line: Elevated plus maze, HFD mice treated with Reparixin. The conditions noted are these: HFD C57BL/6 mice; Reparixin 30 mg/kg s.c. twice per day for 2 weeks vs non-treated. The method, then:
(§2) Reparixin L-lysine salt (MedChemExpress, #HY-15252) or L-Lysine hydrochloride (MedChemExpress, #HY-N0470) was dissolved in H2O was administered to obese C57BL/6 mice (fed for 2 months with high-fat diet) via subcutaneous injection (30 mg/kg) twice per day for 2 weeks. 2 hours after the last injection mice were tested in open field and elevated plus maze and afterwards dissected. A grey colored elevated plus maze apparatus was used. Two open arms (25×5 cm) and two closed arms (25×5 cm) were attached at right angles to a central platform (5×5 cm). The apparatus was set 40 cm above the floor. Mice were first acclimatized to the room for 1-1.5 hours. Mice were then placed individually on the central platform with their back to one of the open arms. Before the test, mice were habituated for 1 minute to the maze, then placed back in the home cage for 5 minutes. Mice were tested for 5 minutes during which they could freely explore the apparatus. Tracking software (Ethovision) recognizes mouse head, central body point, and the base of the tail. Anxiety was quantified by frequency of and time spent during head pokes/dips toward open arms. Higher anxiety is indicated by a lower frequency of movement into open arms and less time spent there.

A short description of data set [3]: Circulating Cxcl1 after Cxcl1 injection in lean C57BL/6 mice. The note with it: Cxcl1 5 μg/kg i.p. daily for 7 days vs vehicle. The method, then: (§3) Recombinant CXCL1 (Peprotech, #250-11) or vehicle (PBS) was administered to lean C57BL/6 via i.p. injection (5 μg/kg in PBS) daily for 7 days. 2 hours after the last injection mice were tested in open field and elevated plus maze and afterwards dissected.
Serum levels of cytokines: Eotaxin, G-Csf, Tnf-α, Il-6, Ifn-γ, Il-1α, Il-1β, Il-17, Il-2, Kc/Cxcl1, Mcp-1, M-Csf, Mig, Mip-1α, and Mip-1β were determined using a Multiplexing LASER Bead Assay (Mouse Cytokine Array/Chemokine Array 31-Plex (MD31), Eve Technologies; Canada). Blood was withdrawn from mice by punctuation of the sub-mandibular vein at the day of dissection before an animal was sacrificed. 50 μL of serum were shipped to Eve Technologies on dry ice. Due to high variability of data an unbiased elimination of outliers was performed using ROUT's method (Graphpad 7 Prism). The same panel was used to detect SASP in MAF and 50 μl of media was shipped to Eve Technologies on dry ice.

Data set [4] has as its system lean C57BL/6. The experiment in a line: Open field test after Cxcl1 injection. The note with it: Cxcl1 5 μg/kg i.p. daily for 7 days vs vehicle. The method, then: as §3
as §1, with “Locomotor” for “Reparixin L-lysine salt (MedChemExpress, #HY-15252) or L-Lysine hydrochloride (MedChemExpress, #HY-N0470) was dissolved in H2O was administered to obese C57BL/6 mice (fed for 2 months with high-fat diet) via subcutaneous injection (30 mg/kg) twice per day for 2 weeks. 2 hours after the last injection mice were tested in open field and elevated plus maze and afterwards dissected. Locomotor”

Data set [5] concerns lean C57BL/6. The data set is described as follows: Elevated plus maze after Cxcl1 injection. The note with it: Cxcl1 5 μg/kg i.p. daily for 7 days vs vehicle. The method, then: as §3
as §2, with “A” for “Reparixin L-lysine salt (MedChemExpress, #HY-15252) or L-Lysine hydrochloride (MedChemExpress, #HY-N0470) was dissolved in H2O was administered to obese C57BL/6 mice (fed for 2 months with high-fat diet) via subcutaneous injection (30 mg/kg) twice per day for 2 weeks. 2 hours after the last injection mice were tested in open field and elevated plus maze and afterwards dissected. A”

Turning to `CC(C)Cc1ccc([C@@H](C)C(=O)NS(C)(=O)=O)cc1` [Reparixin], the “behavior in the open field box” value in the data set with obese C57BL/6 mice [1] is given as “no difference”. For the same molecule, the “behavior in the EPM” value in the data set with obese C57BL/6 mice [2] is reported as “no difference”.

B1: Cxcl1: Recombinant CXCL1 (Peprotech, #250-11) injected i.p. into lean mice (protein, UniProt P12850 25-96, looked up)
Growth-regulated alpha protein: APIANELRCQCLQTMAGIHLKNIQSLKVLPSGPHCTQTEVIATLKNGREACLDPEAPLVQKIVQKMLKGVPK
In the case of B1, the “circulating Cxcl1 in blood plasma” value is “increased levels” in data set [3] and “significantly increased” in data set [3] (listed as Cxcl-1). In addition, the “anxiety-like behavior, open field (distance in the central area)” value with lean C57BL/6 [4] is listed as “no difference”; in the data set with lean C57BL/6 [4] (listed as Cxcl-1), “not different”. The “anxiety-like behavior, EPM (head entries in the open arms)” value in the data set with lean C57BL/6 [5] is “no difference”; in the data set on lean C57BL/6 [5] (listed as Cxcl-1), “not different”.
